Results published in US20240002531A1 (ONO PHARMACEUTICAL, published 2024).
Read-outs that look alike come from different tables or passages of the source.

Experiments:
Assay in all cases: peptide ELISA, OD 655 nm
[1] = molecular target: T1, P606A peptide (HER2 603-622 with P606A) (human)
T1 peptide: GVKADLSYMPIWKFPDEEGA

[2] = molecular target: T2, D618A peptide (HER2 603-622 with D618A) (human)
T2 peptide: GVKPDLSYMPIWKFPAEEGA

[3] = molecular target: T3, I613A peptide (HER2 603-622 with I613A) (human)
T3 construct: also called 1613A
T3 peptide: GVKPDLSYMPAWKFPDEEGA

[4] = molecular target: T4, E620A peptide (HER2 603-622 with E620A) (human)
T4 peptide: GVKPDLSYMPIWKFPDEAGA

[5] = molecular target: T5, K605A peptide (HER2 603-622 with K605A) (human)
T5 peptide: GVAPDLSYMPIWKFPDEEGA

[6] = molecular target: T6, L608A peptide (HER2 603-622 with L608A) (human)
T6 peptide: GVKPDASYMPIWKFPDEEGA

[7] = molecular target: T7, D607A peptide (HER2 603-622 with D607A) (human)
T7 peptide: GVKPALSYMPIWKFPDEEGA

[8] = molecular target: T8, P612A peptide (HER2 603-622 with P612A) (human)
T8 peptide: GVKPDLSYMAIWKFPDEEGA

[9] = molecular target: T9, G603A peptide (HER2 603-622 with G603A) (human)
T9 peptide: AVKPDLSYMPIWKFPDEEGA

[10] = molecular target: T10, M611A peptide (HER2 603-622 with M611A) (human)
T10 peptide: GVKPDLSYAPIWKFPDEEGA

[11] = molecular target: T11, HER2_604-622C peptide (NH2-VKPDLSYMPIWKFPDEEGAC-COOH) (human)
T11 construct: KLH was added for immunisation, the peptide itself was coated in the screening ELISA
T11 peptide: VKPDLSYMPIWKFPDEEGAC

[12] = molecular target: T12, P617A peptide (HER2 603-622 with P617A) (human)
T12 peptide: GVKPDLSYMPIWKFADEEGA

[13] = molecular target: T13, V604A peptide (HER2 603-622 with V604A) (human)
T13 peptide: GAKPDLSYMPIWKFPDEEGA

[14] = molecular target: T14, K615A peptide (HER2 603-622 with K615A) (human)
T14 peptide: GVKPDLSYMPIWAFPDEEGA

[15] = molecular target: T15, F616A peptide (HER2 603-622 with F616A) (human)
T15 peptide: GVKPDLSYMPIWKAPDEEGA

[16] = molecular target: T16, W614A peptide (HER2 603-622 with W614A) (human)
T16 peptide: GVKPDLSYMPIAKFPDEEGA

[17] = molecular target: T17, HER2 peptide p603-622 (amino acids 603 to 622 of human HER2) (human)
T17 construct: Synthetic peptide; also called wild-type HER2 peptide
T17 peptide: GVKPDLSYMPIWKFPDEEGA

[18] = molecular target: T18, E619A peptide (HER2 603-622 with E619A) (human)
T18 peptide: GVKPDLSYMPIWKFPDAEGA

[19] = molecular target: T19, S609A peptide (HER2 603-622 with S609A) (human)
T19 peptide: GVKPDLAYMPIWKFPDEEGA

[20] = molecular target: T20, Y610A peptide (HER2 603-622 with Y610A) (human)
T20 peptide: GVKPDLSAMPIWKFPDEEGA

[21] = molecular target: T21, G621A peptide (HER2 603-622 with G621A) (human)
T21 peptide: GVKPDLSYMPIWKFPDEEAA

[22] = molecular target: T1, P606A peptide (HER2 603-622 with P606A)
[23] = molecular target: T2, D618A peptide (HER2 603-622 with D618A)
[24] = molecular target: T3, I613A peptide (HER2 603-622 with I613A)
[25] = molecular target: T4, E620A peptide (HER2 603-622 with E620A)
[26] = molecular target: T5, K605A peptide (HER2 603-622 with K605A)
[27] = molecular target: T6, L608A peptide (HER2 603-622 with L608A)
[28] = molecular target: T7, D607A peptide (HER2 603-622 with D607A)
[29] = molecular target: T8, P612A peptide (HER2 603-622 with P612A)
[30] = molecular target: T9, G603A peptide (HER2 603-622 with G603A)
[31] = molecular target: T10, M611A peptide (HER2 603-622 with M611A)
[32] = molecular target: T11, HER2_604-622C peptide …
[33] = molecular target: T12, P617A peptide (HER2 603-622 with P617A)
[34] = molecular target: T13, V604A peptide (HER2 603-622 with V604A)
[35] = molecular target: T14, K615A peptide (HER2 603-622 with K615A)
[36] = molecular target: T15, F616A peptide (HER2 603-622 with F616A)
[37] = molecular target: T16, W614A peptide (HER2 603-622 with W614A)
[38] = molecular target: T17, HER2 peptide p603-622 (amino acids 603 …)
[39] = molecular target: T18, E619A peptide (HER2 603-622 with E619A)
[40] = molecular target: T19, S609A peptide (HER2 603-622 with S609A)
[41] = molecular target: T20, Y610A peptide (HER2 603-622 with Y610A)
[42] = molecular target: T21, G621A peptide (HER2 603-622 with G621A)

B1: H2Mab-285 antibody (antibody, mouse IgG3, V domains shown)
VH: EVQLVESGGGLVQPGGSLKLSCAASGFTFSNYGIFWVRQTPDKRLELVATVKSNGGSTYYPDSVKGRFTISRDNAKKTLYLQMSSLKSEDTAMYYCAREGGDYWGQGTSVTVSS
VL: DIVMTQSHKFMSTSVGDRVSITCKASQDVGTAVAWYQQKPGQSPKLLIYWTSTRHTGVPDRFTGSGSGTDFTLTIRNVQSEDLADYFCQQYNRNPLTFGAGTRLELKR
binding result [1]: binds | binding result [2]: binds | binding result [3]: binds | binding result [4]: binds | binding result [5]: binds | binding result [6]: binds | binding result [7]: binds | binding result [8]: binds | binding result [9]: binds | binding result [10]: binds | binding result [11]: binds | binding result [12]: binds | binding result [13]: binds | binding result [14]: binds | binding result [15]: binds | binding result [16]: binds | binding result [17]: binds | binding result [18]: binds | binding result [19]: binds | binding result [20]: binds | binding result [21]: binds

B2: H2Mab-284 antibody (antibody, mouse IgG1, kappa, V domains shown)
VH: QVTLKESGPGILQPSQTLSLTCSFSGFSLSTSGVGVGWIRQPSGKGLEWLAHIWWDDDKNYNPALKSRLTISKDTSTNQGFLKIASVDTADTATYFCARIEGQKGFAYWGQGTLVTVSA
VL: DIVMSQSPSSLAVSVGEKVTMSCKSSQSLLYSRNQKNYLAWYQQKPGQSPKLLIYWASTRESGVPDRFTGSGSGTDFTLTISSVKAEDLAVYYCQQYYSSPYTFGGGTKLEIKR
binding result [1]: binds | binding result [2]: binds | binding result [3]: binds | binding result [4]: binds | binding result [5]: binds | binding result [6]: binds | binding result [7]: binds | binding result [8]: binds | binding result [9]: binds | binding result [10]: binds | binding result [11]: binds | binding result [12]: binds | binding result [13]: binds | binding result [14]: no binding (tested: 10 ug/ml) | binding result [15]: no binding (tested: 10 ug/ml) | binding result [16]: binds | binding result [17]: binds | binding result [18]: binds | binding result [19]: binds | binding result [20]: binds | binding result [21]: binds

B3: H2Mab-289 antibody (antibody, mouse IgG1, kappa, V domains shown)
VH: EVQLQQSGPELVKPGASVKISCKASGYSFTGFFMNWVMQSHGKSLEWIGRINPYNGDTFYNQKFNDKATLTVDKSSRTAHMDLRNLASEDSAVYYCATISGNYRGYAMDNWGQGTSVTVSS
VL: DVLMTQTPLSLPVSLGDQASISCRSSQTILHTNGNTYLEWYLQKPGQSPKLLIYKVSNRFSGVPDRFSGSGSGTDFTLKISRVEAEDLGVYYCFQGSRVPPTFGGGTKLEIKR
binding result [22]: binds | binding result [23]: binds | binding result [24]: binds | binding result [25]: binds | binding result [26]: binds | binding result [27]: binds | binding result [28]: binds | binding result [29]: binds | binding result [30]: binds | binding result [31]: binds | binding result [32]: binds | binding result [33]: binds | binding result [34]: binds | binding result [35]: binds | binding result [36]: binds | binding result [37]: binds | binding result [38]: binds | binding result [39]: binds | binding result [40]: binds | binding result [41]: binds | binding result [42]: binds
